The target in this assay is human VEGF-A (human) (UniProt P15692). Description: cell-based or functional assay.
Chain of human VEGF-A (human) (P15692 other isoform, or with tags, fused parts or gaps limits assumed): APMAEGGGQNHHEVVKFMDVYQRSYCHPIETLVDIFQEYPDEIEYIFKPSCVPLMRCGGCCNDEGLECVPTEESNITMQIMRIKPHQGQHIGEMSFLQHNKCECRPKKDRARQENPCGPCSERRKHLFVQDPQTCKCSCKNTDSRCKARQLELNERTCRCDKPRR

Chain of EYLEA (aflibercept) (Fc fusion) (chain): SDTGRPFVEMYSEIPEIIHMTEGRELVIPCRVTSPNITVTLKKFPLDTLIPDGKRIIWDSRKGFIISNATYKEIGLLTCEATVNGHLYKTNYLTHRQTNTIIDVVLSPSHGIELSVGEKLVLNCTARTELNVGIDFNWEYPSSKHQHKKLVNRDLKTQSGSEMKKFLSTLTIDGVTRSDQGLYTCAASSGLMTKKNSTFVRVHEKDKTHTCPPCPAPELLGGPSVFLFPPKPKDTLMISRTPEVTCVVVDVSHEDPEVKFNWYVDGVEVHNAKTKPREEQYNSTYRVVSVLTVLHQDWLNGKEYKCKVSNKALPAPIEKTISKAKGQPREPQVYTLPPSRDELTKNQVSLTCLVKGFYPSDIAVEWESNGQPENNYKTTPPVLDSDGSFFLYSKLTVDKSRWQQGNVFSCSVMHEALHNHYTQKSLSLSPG

Consider EYLEA (aflibercept) (Fc fusion), for which the ERK1/2 phosphorylation: Bottom plateau (AlphaLISA counts) (AlphaLISA counts) came out at 21700; the ERK1/2 phosphorylation: Top plateau (AlphaLISA counts) (AlphaLISA counts) stood at 109000; the HRMEC proliferation, delta area under the curve vs. basal: Top plateau (arbitrary units) (arbitrary units) is 129; the HRMEC proliferation: Bottom plateau (arbitrary units) (arbitrary units) is 13.3. Further, the HRMEC proliferation: IC50 (pM) came out at 171 pM, the HRMEC proliferation: LogIC50 was -9.77, the IC50 (p38 MAPK phosphorylation) stood at 0.74 nM and the Src phosphorylation (Y419): Bottom plateau (AlphaLISA counts) (AlphaLISA counts) is 2210. The substance further had a Src phosphorylation (Y419): IC50 of 0.933 nM, a Src phosphorylation (Y419): LogIC50 of -9.37, a Src phosphorylation (Y419): Top plateau (AlphaLISA counts) (AlphaLISA counts) of 3420 and an inhibition of VEGF-induced HRMEC proliferation of 16 nM. This substance came in with a p38-MAPK phosphorylation (T180/Y182): Bottom plateau (AlphaLISA counts) (AlphaLISA counts) of 8890, a p38-MAPK phosphorylation (T180/Y182): IC50 of 0.748 nM, a p38-MAPK phosphorylation (T180/Y182): LogIC50 of -9.13 and a p38-MAPK phosphorylation (T180/Y182): Top plateau (AlphaLISA counts) (AlphaLISA counts) of 23100.

These data come from patent publication US20250051460A1.
